Results as given in article PMC13147308, “Investigating the molecular mechanisms underlying the anti‐CRISPR function of AcrIIA13b protein” (The Febs Journal, 2025).

B1: SauCas9 WED (wedge-like) domain, His-tagged (domain or fragment)
chain: LYSTRKDDKGNTLIVNNLNGLYDKDNDKLKKLINKSPEKLLMYHHDPQTYQKLKLIMEQYGDEKNPLYKYYEETGNYLTKYSKKDNGPVIKKIKYYGNKLNAHLDITDDYPNSRNKVVKLSL
B2: SauCas9 WED-PI domain construct, His-tagged (domain or fragment)
chain: LYSTRKDDKGNTLIVNNLNGLYDKDNDKLKKLINKSPEKLLMYHHDPQTYQKLKLIMEQYGDEKNPLYKYYEETGNYLTKYSKKDNGPVIKKIKYYGNKLNAHLDITDDYPNSRNKVVKLSLKPYRFDVYLDNGVYKFVTVKNLDVIKKENYYEVNSKCYEEAKKLKKISNQAEFIASFYNNDLIKINGELYRVIGVNNDLLNRIEVNMIDITYREYLENMNDKRPPRIIKTIASKTQSIKKYSTDILGNLYEVKSKKHPQIIKKG

Target: T1, Staphylococcus haemolyticus AcrIIA13b, wild type, with C-terminal 6xHis tag (Staphylococcus haemolyticus)
T1 construct: Monomer and dimer peaks coexist in SEC; also called shAcrIIA13b; wild-type AcrIIA13b; source: E. coli BL21 (DE3), purified (Ni-NTA, SEC)
Experiment: ITC; PBS pH 7.4, 20 °C; AcrIIA13b (500 μM) injected into the target protein (50 μM) in the cell, 25 injections; single-site model
Settings: both partners purified

Binder | Kd
B1 | 3.21 µM
B2 | 0.12 µM
